We go through 1 substance from article PMC5612244.

The target in experiment [1] is recombinant EsGLUT4 intracellular region (between TM6 and TM7) (Eriocheir sinensis). In words: BLI; ForteBio Octet RED96; biotinylated rEsGLUT4 region (50 µg/ml) immobilised on streptavidin (SA) sensors; four serial concentrations of CHHBP, highest 1 µM (intracellular region) and 0.38 µM (extracellular region); association 300 s, dissociation 600 s; room temperature; physiological saline for crab.

Experiment [2] deals with recombinant EsGLUT4 extracellular region (between TM1 and TM2) (Eriocheir sinensis). The experiment is described as above.

Consider “recombinant CHH binding protein (CHHBP), an E. sinensis flotillin-like protein (natural protein)”, for which the Kd is 6.81 nM in experiment [1] and 2.52 nM in experiment [2].
